The values that follow come from patent US20110135636A1 (SYMPHOGEN A S, published 2011).

The term % inhibition denotes the change of the read-out against control, counted positive when it falls.

For assay [1], the target named is T1, recombinant human EGFR extracellular domain with 6xHis (human, UniProt P00533 25-645).
T1 construct: In-house produced; also called 6xHis EGFR ECD; soluble human EGFR ECD; not shown: 6xHis tag
Briefly: SPR competition, competitor 1277. The method, then:
(§1) SPR analysis was performed on a Biacore 3000 machine containing four flow cells. A CM5 Biacore chip was conjugated with 10,000 Resonance units (Ru) polyclonal anti-His antibody to flow cells 1-4 according to the manufacturer's instructions. […] Immediately after antigen injection the maximal binding of the Anti-EGFR mAb without competition was established in each flow cell during a reference run. Briefly 5 μl antibody at a concentration of 40 μg/ml was injected over all flow cells with captured EGFR followed by stripping of the antibody/antigen complex with a low pH acid wash (10 sec. contact time with 10 mM Glycine-HCl, pH2). After the determination of Anti-EGFR antibody maximal binding to each flow cell, a competition run was performed during the same Biacore cycle. Flow cells were first saturated with EGFR ECD antigen followed by injection of different reference antibodies or Anti-EGFR antibodies into separate flow cells using the same antigen saturating conditions as outlined above. This step was immediately followed by a second injection of Anti-EGFR antibody over the flow cell saturated with EGFR antigen and competition antibody to minimize the dissociation of either antigen or blocking antibody. Then the antibody/antigen complexes were stripped off with a low pH acid wash (10 sec. contact time with 10 mM Glycine-HCl, pH 2) and the whole cycle beginning with the reference run was repeated with a new Anti-EGFR antibody. The degree of inhibition of tested Anti-EGFR antibodies were determined by comparing the Ru max value of the individual Anti-EGFR antibody before and after competition by introduction of report points recorded two seconds before and after injection of each sample.

Assay [2] concerns the target T1, recombinant human EGFR extracellular …. Briefly: SPR competition, competitor 1208. The method, then:
as §1

For assay [3] the target is unchanged. Nature of the assay: SPR competition, competitor ICR10. The method, then: as §1
Assay [4] has the same target. Nature of the assay: SPR competition, competitor Erbitux. The method, then:
as §1

For assay [5] the target is unchanged. Nature of the assay: SPR competition, competitor Vectibix. The method, then:
as §1

For assay [6] the target is unchanged. Briefly: SPR competition, competitor Ab-5. The method, then:
as §1

The target is the same in assay [7]. Nature of the assay: SPR competition, competitor 1320. The method, then: as §1
Assay [8] shares this target. Briefly: SPR competition, competitor 1261. The method, then: as §1
Assay [9] shares this target. Briefly: SPR competition, competitor 1284. The method, then:
as §1

The target is the same in assay [10]. Nature of the assay: SPR competition, competitor 1257. The method, then:
as §1

For assay [11] the target is unchanged. Nature of the assay: SPR competition, competitor Erbitux. A digest of the protocol:
(§2)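 Biacore 3000 SPR with His-tagged EGFR ECD captured on a CM5 chip carrying polyclonal anti-His antibody. A reference run set each anti-EGFR mAb's maximal binding (40 μg/ml). Competitor then saturated the captured antigen before the test mAb was injected again. Inhibition = Ru max before vs after competition.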
The source holds these as a separate data set.

Assay [12] shares this target. Nature of the assay: SPR competition, competitor Ab-11. The method, then: as §1
Assay [13] shares this target. Briefly: SPR competition, competitor Vectibix. A digest of the protocol:
as §2
This is another data set of the same source.

For assay [14] the target is unchanged. Nature of the assay: SPR competition, competitor 1254. The method, then:
as §1

Assay [15] shares this target. Briefly: SPR competition, competitor 1260. The method, then:
as §1

For assay [16] the target is unchanged. Briefly: SPR competition, competitor Ab-1. The method, then: as §1
Assay [17] has the same target. Briefly: SPR competition, competitor 992 corr. An outline of the steps: as §2
Assay [18] has the same target. Nature of the assay: SPR competition, competitor 1344. The method, then:
as §1

Assay [19] shares this target. Nature of the assay: SPR competition, competitor Ab-10. The method, then: as §1
Assay [20] has the same target. Nature of the assay: SPR competition, competitor 1024. The method, then: as §1
The target is the same in assay [21]. Nature of the assay: SPR competition, competitor Ab-3. The method, then: as §1
For assay [22] the target is unchanged. Briefly: SPR competition, competitor 1030corr. The method, then:
as §1

Assay [23] shares this target. Nature of the assay: SPR competition, competitor 1347. The method, then:
as §1

B1: antibody 1257 (antibody, human IgG1, kappa, V domains shown)
VH: EVQLQQSGPELVKPGASVKIPCKTSGYTFTDYNMAWVKQSHGKSLEWIGDIIPNNGGAIYNQKFKGKATLTVDKSSSTASMELRSLTSEDTAVYFCARKNIYYRYDGAGALDYWGQGTSVTVSS
VL: QIVLTQSPAIMSASPGEKVTMTCSASSSVSYIYWYQQKPGSSPRLLIYDASNLASGVPVRFSGSGSGTSYSLTISRMEAEDAATYYCQQWSSYPITFGSGTKLEIKR
notes: Chimeric IgG1 kappa
As to B1, the “% inhibition” value in [1] was 11%; in assay [2], 17%; in [3] it was 22%; in [4] it was 0%; in [5] it was -2%; in assay [6], -5%. Also, the “% inhibition” value in [7] stood at 15%; in assay [8] it was 103%; in [9] it was 16%; in [10] it was 90%; in assay [11], 0%; in assay [12], 100%. Moreover, the “% inhibition” value in assay [13] is 15%; in [14], 8%; in assay [15], 68%; in assay [16], -1%; in assay [17], 16%; in [18] it was 80%. Also, the “% inhibition” value in assay [19] worked out at 1%; in assay [20] it was 17%; in assay [21] it was 85%; in assay [22], 4%; in assay [23], 21%.

B2: antibody 1344 (antibody, human IgG1, kappa, V domains shown)
VH: QVQLKESGPGLVAPSQSLSITCTVSGFSLTIYGVHWVRQPPGKGLEWLGVIWAGGNTNYNSALMSRLSISKDNSKSQVFLKMNSLQTDDTAMYFCARGYGYNLDYWGQGTTLTVSS
VL: DIQMTQTTSSLSASLGDRVTISCSASQGISNYLNWYQQKPDGTVKLLIYYTSSLHSGVPSRFSGSGSGTDYSLTISNLEPEDIATYYCQQYSKLPYTFGGGTKLEIKR
notes: Chimeric IgG1 kappa
For the molecule B2, the “% inhibition” value in assay [1] is 10%; in [2], 3%; in [3] it was 87%; in [4], -4%; in assay [5] it was -5%; in assay [6], -3%. The “% inhibition” value in [7] was 8%; in assay [8] it was 71%; in assay [9], 81%; in [10], 83%; in assay [11] it was -4%; in assay [12], 86%. Also, the “% inhibition” value in assay [13] was 8%; in assay [14] it was 10%; in [15], 87%; in [16], -2%; in [17] it was 9%; in assay [18] it was 83%. Further, the “% inhibition” value in assay [19] was 0%; in [20], 3%; in [21], 25%; in assay [22], 31%; in [23], 15%.

B3: antibody 1260 (antibody, human IgG1, kappa, V domains shown)
VH: QVQLKESGPGLVAPSQSLSITCTVSGFSLTTYGVHWVRQPPGKGLEWLGVIWAGGSTNYNSALMSRLSIKKDNSKSQVFLKMNSLQTDDTAMYYCARAYGYNFDYWGQGTTLTVSS
VL: DIQMTQTTSSLSASLGDRVTISCSASQGITNYLNWYQQKPDGTVKLLIYYSSSLHSGVPSRFSGSGSGTDYSLTISNLEPEDIATYYCQQYSEIPYTFGGGTKLELKR
notes: Chimeric IgG1 kappa
As for B3, the “% inhibition” value in assay [1] amounted to 25%; in [2] it was 33%; in assay [3], 91%; in assay [4], 8%; in assay [5], 10%; in assay [6], 1%. Further, the “% inhibition” value in assay [7] is 26%; in assay [8], 97%; in assay [9], 67%; in assay [10] it was 55%; in assay [11] it was 8%; in [12] it was 99%. The “% inhibition” value in assay [13] is 31%; in [14], 22%; in [15], 88%; in [16] it was 7%; in [17] it was -10%; in assay [18] it was 83%. Moreover, the “% inhibition” value in [19] was found to be 12%; in assay [20], 33%; in assay [21], 64%; in [22], 18%; in assay [23], 46%.

B4: antibody 1261 (antibody, human IgG1, kappa, V domains shown)
VH: EVQLVESGGGLVKPGGSLKLSCAVSGFTFSSYVMSWVRQTPEKRLEWVATITSGGRNIYYLDSVKGRFTISRDNAKNTLYLQMSSLRSEDTAMYYCARHEDYRYDGYYAMDYWGQGTSVTVSS
VL: QIVLTQSPAIMSASPGEKVTITCSASSSVSYMHWFQQKPGTSPKLWIYSTSNLASGVPARFSGSGSGTSYSLTISRMEAEDAATYYCQQRSSYPYTFGGGTKLELKR
notes: Chimeric IgG1 kappa
With B4, the “% inhibition” value in assay [1] is -19%; in assay [2] it was -24%; in assay [3], 24%; in assay [4], -2%; in assay [5], -5%; in [6], -3%. The “% inhibition” value in [7] is -18%; in assay [8], 95%; in assay [9], -8%; in [10] it was 58%; in assay [11], -2%; in assay [12] it was 94%. Moreover, the “% inhibition” value in assay [13] was -21%; in assay [14], -12%; in assay [15], 75%; in [16] it was -4%; in assay [17] it was 14%; in assay [18], 65%. Moreover, the “% inhibition” value in assay [19] is -6%; in [20], -24%; in assay [21], 54%; in assay [22] it was -6%; in assay [23], 4%.
